According to US20230272086A1 (CHIA TAI TIANQING PHARMACEUTICAL GROUP, published 2023):
Changes are numbered by the printed parent chain.

T1: recombinant protein containing hST2 extracellular domain with mouse antibody heavy chain Fc tag (hST2-ECD-mFc) (human)
T1 construct: Used for SPR and for ELISA of chimeric and humanized antibodies; also called human ST2 antigen
T1 chain: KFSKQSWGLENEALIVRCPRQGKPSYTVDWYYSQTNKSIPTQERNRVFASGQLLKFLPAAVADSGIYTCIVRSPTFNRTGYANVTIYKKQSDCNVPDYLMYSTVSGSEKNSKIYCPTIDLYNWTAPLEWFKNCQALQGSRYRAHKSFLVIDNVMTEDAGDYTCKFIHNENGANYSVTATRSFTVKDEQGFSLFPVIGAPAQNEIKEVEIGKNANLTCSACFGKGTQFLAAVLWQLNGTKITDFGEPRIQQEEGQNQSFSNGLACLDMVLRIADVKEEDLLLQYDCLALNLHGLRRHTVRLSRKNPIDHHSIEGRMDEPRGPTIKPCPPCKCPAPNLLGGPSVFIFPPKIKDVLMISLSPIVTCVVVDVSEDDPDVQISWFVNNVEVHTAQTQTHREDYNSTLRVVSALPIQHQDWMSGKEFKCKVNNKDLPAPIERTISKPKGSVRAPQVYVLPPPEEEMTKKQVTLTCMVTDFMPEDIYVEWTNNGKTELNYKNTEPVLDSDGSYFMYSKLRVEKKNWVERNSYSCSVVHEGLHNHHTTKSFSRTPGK

B1: Chimeric 31C8 (antibody, human IgG2, kappa, V domains shown)
VH: QVQLQQSGPELVRPGASVTLSCKASGYIFIDSEMHWVKQTPVHGLEWIGAIDPETGDTVYNQKFKGKATLTADKSSSTASMELSSLTSEDSAVYYCTGSTTDYYFAYWGQGTTLTVSS
VL: DIVMTQAAFSNPVTLGTSASISCRSSKSLLHSNGIIYLYWYLQKPGQSPQLLIYQMSNLASGVPDRFSSSGSGTDFTLRISRVEAEDVGVYYCAQNLELPFTFGSGTKLEIKR
notes: also called xi31C8
B2: Chimeric 3C6 (antibody, human IgG2, kappa, V domains shown)
VH: QVQLQQSGAEVVRPGASVTLSCKASDYTITDYEMHWVKQTPVHGLEWIGAIDPETGDTAYSQNFKGKATLTADESSSTAYMELSSLTSEDSAVYYCSRSATDYYFASWGQGTTLTVSS
VL: B1 VL with F9I, I21M, I36T, Q47H, R79K
notes: also called xi3C6
B3: Chimeric 26A1 (antibody, human IgG2, kappa, V domains shown)
VH: B1 VH with P9A, G26D, I30T, M34I, P41L, V59A, S80Y, D90G, T97S, Y103C
VL: B1 VL
notes: also called xi26A1
B4: Chimeric 8F4 (antibody, human IgG2, kappa, V domains shown)
VH: B1 VH with P9A, Y27H, I30T, S32Y, H35Q, I51F, V59A, S80Y, T97S, T113S
VL: B1 VL with I2V, A7T
notes: also called xi8F4
B5: Chimeric 7D1 (antibody, human IgG2, kappa, V domains shown)
VH: QVQLQQSGAELVRPGASVTLSCKASGYTFTDYEMHWVKQTPVHGLDWIGTIDPETGDTAYNQKFKGRATLTADKSSSTAYMELSSLTSEDSAVYYCTRYSYTNSPYGMDYWGQGTSVTVSS
VL: DVVMTQTPKFLLVSAGDRVTITCKASQSVSNDVAWYQQKPGQSPKLLIYYASNRYTGVPDRFTGSGYGTDFTFTINTVQAEDLAVYFCQQDYSSPYTFGGGTKLEIKR
notes: also called xi7D1
B6: RG6149 (antibody Ab2 in CN104334582, prepared in-house) (antibody, human IgG2, kappa, V domains shown)
VH: EVQLVQSGAEVKKPGESLKISCKGSGYSFTNYWIGWVRQMPGKGLEWMGIIYPGNSDTRFSPSFQGQVTISADKSITTAYLQWSSLKASDTAMYYCARHGTSSDYYGLDVWGQGTTVTVSS
VL: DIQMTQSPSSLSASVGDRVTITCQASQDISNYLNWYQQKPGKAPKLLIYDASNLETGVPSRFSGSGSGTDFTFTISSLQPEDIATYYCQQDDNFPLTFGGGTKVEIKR
notes: Control anti-ST2 antibody
B7: Chimeric 17E2 (antibody, human IgG2, kappa, V domains shown)
VH: QVQLQQSGAELVRPGASVTLSCKASGYTFTDYEMHWVKQTPVLGLEWIGAIDPETGDTAYNQKFKGKATLTADKSSSTAYMELSSLASEDSAVYYCIRVDSNYDYFDYWGQDTTLTVSS
VL: DIVLTQSPPILSASPGEKVTMTCRASSSVSYMHWYQQKPGSSPKPWIYDTSNLASGVPARFSGSGSGTSYSLTISRVEAEDAATYYCQQWSSNPLTFGAGTKLELKR
notes: also called xi17E2
B8: GSK3772847 (antibody STLM208 in CN104411333, prepared in-house) (antibody, human IgG2, kappa, V domains shown)
VH: EVQLLESGGGLVQPGGSLRLSCAASGFTFSIYDMIWVRQAPGKGLEWVSSIRGEGGGTYYADSVKGRFTISRDNSKNTLYLQMNSLRAEDTAVYYCARDPWSTEGSFFVLDYWGQGTLVTVSS
VL: EIVLTQSPATLSLSPGERATLSCRASQSVDDDLAWYQQKPGQAPRLLIYDASNRATGIPARFSGSGSGTDFTLTISSLEPEDFAVYYCQQYITAPLTFGQGTKVEIKR
notes: Control anti-ST2 antibody
B9: Humanized 31C8-1.1 (antibody, human IgG2, kappa, V domains shown)
VH: EVQLVQSGAEVKKPGATVKISCKASGYIFIDSEMHWVQQAPGKGLEWMGAIDPETGDTVYAEKFQGRVTITADKSSSTAYMELSSLRSEDTAVYYCTGSTTDYYFAYWGQGTLVTVSS
VL: DIQMTQSPSSLSASVGDRVTITCRSSKSLLHSNGIIYLYWYQQKPGKAPKLLIYQLSNLASGVPSRFSSSGSGTDFTLTISSLQPEDFATYYCAQNLELPFTFGQGTKVEIKR
notes: also called hz31C8-1.1; hz31C81-1.1
B10: Humanized 31C8-1.2 (antibody, human IgG2, kappa, V domains shown)
VH: B9 VH with E1Q, E10K, E62K, Q65K
VL: B9 VL
notes: also called hz31C8-1.2; hz31C81-1.2

Target: T1, recombinant protein containing hST2 …
Test: ELISA, plate coated with hST2-ECD-mFc
Description: (§1) ST2 binding screening and analysis of antibodies were performed by ELISA using hST2-ECD-mFc (for assays of chimeric and humanized antibodies), hST2-ECD-hFc protein (for assays of hybridoma antibodies) and Cyno-ST2-his (Sino biological, 90915-C08H) as antigens. A high-adsorption 96-well plate (Costar, 9018) was coated with 2 µg/mL hST2-ECD-mFc or Cyno-ST2-his antigen at 100 µL/well and incubated overnight at 4° C. After the antigen not adsorbed was well washed off, the non-specific binding sites were blocked with a blocking buffer (PBS containing 2% bovine serum albumin). After the plate was washed three times with a washing buffer (PBS containing 0.05% (v/v) Tween 20), the anti-ST2 antibodies (serially diluted 3-fold from an initial concentration of 10 nM to 8 concentrations: 3.333 nM, 1.111 nM, 0.370 nM, 0.123 nM, 0.041 nM, 0.014 nM, 0.005 nM, and 0.002 nM) were added at 100 µL/well, and the plate was incubated at room temperature for 1 h. After the plate was washed with the washing buffer, a horseradish peroxidase (HRP)-conjugated secondary antibody was added, and the plate was incubated for another 60 min. After the plate was washed with the washing buffer, the substrate TMB solution (Thermo, 00-4201-56) was added at 100 µL/well, and the plate was incubated at room temperature for 2 min. A stop solution (2 N H₂SO₄) was added at 100 µL/well to terminate the reactions. Colorimetric signals were generated and read at 450 nm using a microplate reader (PE, Envision). The data were analyzed using GraphPad Prism5, and the EC₅₀ values were calculated.

Binder | EC50 [nM]
B1 | 0.184
B2 | 0.157
B3 | 0.175
B4 | 0.172
B5 | 0.191
B6 | 0.113
B7 | 0.235

These binders were tested against recombinant protein containing hST2 extracellular domain with human antibody heavy chain Fc tag (hST2-ECD-hFc) (human) (assay: competition ELISA, coated hST2-ECD-hFc, antibody then biotin-labeled hIL33 Avitag (competitor)).
Description: Whether the anti-ST2 antibodies were able to block the binding of hIL33 to hST2 was determined based on ELISA. A high-adsorption 96-well plate was coated with 2 µg/mL hST2-ECD-hFc at 100 µL/well and incubated overnight at 4° C. After the antigen not adsorbed was well washed off, the non-specific binding sites were blocked with a blocking buffer (PBST containing 1% bovine serum albumin). After the plate was washed three times with a washing buffer (PBST, PBS containing 0.05% (v/v) Tween 20), the anti-ST2 antibodies (serially diluted 2-fold from an initial concentration of 66.67 nM to 8 concentrations) were added at 100 µL/well, and the plate was incubated at 37° C. for 1 h After the plate was washed 3 times with the washing buffer, 100 µL of biotin-labeled hIL33 Avitag (with a concentration of 0.1 µg/mL) was added to each well, and the plate was incubated at 37° C. for 1 h. After the plate was washed 3 times with the washing buffer, a 1:1000 diluted secondary antibody Avidin HRP (Jackson immunoresearch, 016-030-084) was added at 100 µL/well, and the plate was incubated at room temperature for 1 h After the plate was washed with the washing buffer, the substrate TMB solution (Thermo, 00-4201-56) was added at 100 µL/well, and the plate was incubated at room temperature for 3 min. 50 µL of a stop solution (2 N H₂SO₄) was added to terminate the reactions. Colorimetric signals were generated and read at 450 nm using a plate reader (PE, Envision). The data were analyzed using GraphPad Prism5, and the IC₅₀ values were calculated.

Binder | IC50 [nM]
B1 | 2.5
B2 | 2.52
B3 | 2.53
B4 | 2.79
B5 | 2.9
B6 | 2.88
B7 | 3.35

Target: T1, recombinant protein containing hST2 …
Test: ELISA, plate coated with hST2-ECD-mFc
Remark: another data set of the same source
Description: as §1
The humanized antibodies hz31C81-1.1 (the amino acid sequence of the heavy chain set forth in SEQ ID NO: 75 and the amino acid sequence of the light chain set forth in SEQ ID NO: 81) and hz31C8-1.2 (the amino acid sequence of the heavy chain set forth in SEQ ID NO: 77 and the amino acid sequence of the light chain set forth in SEQ ID NO: 81) were subjected to affinity, binding, blocking and cell function analyses using the methods described in Example 4, Example 5, Example 6, Example 7, Example 8, Example 9 and Example 10.

Binder | EC50 [nM]
B8 | 0.127
B1 | 0.0865
B6 | 0.113
B9 | 0.0879
B10 | 0.0937
